System: M200 filaments
Assay: Stopped-flow turbidity, dissociation of M200 filaments on NaCl jump or dilution
Format: biochemical, human
Procedure: Fig. 9 Dissociation of M200 filaments by S100A4. (a) Initially, M200 was added (i) from a concentrated stock in 0.5 M NaCl to give a final concentration of 5 μM M200 (with respect to the polypeptide chain) in 100 mM NaCl, 10 mM Hepes, and 0.1 mM Ca^2+ at pH 7.5 and 20 °C. A biphasic rise in turbidity was recorded for 200 s (continuous line). Then 10 μM S100A4 (with respect to monomer concentration) was added (ii), followed by 0.2 mM EGTA (iii) and 1 mM Ca^2+ (iv). […] (b) M200 was diluted (i) into 100 mM NaCl to form filaments as in (a), then 5 μM S100A4 was added (ii), causing a 54% drop in turbidity. A further 5 μM S100A4 (iii) caused turbidity to fall to almost zero. (c) Stopped-flow records monitoring the dissociation of 5 μM M200 filaments on jumping [NaCl] from 100 mM to 120 mM NaCl. Other components of the buffer were 20 mM Hepes, 1 mM Mg^2+, and 100 μM Ca^2+ at pH 7.5 and 20 °C. […] In the presence of 20 μM S100A4 (lower trace), the turbidity decreased by 87% with a rate constant of 0.2 s^− 1.
It is of interest to know whether S100A4 drives depolymerisation solely by binding to free M monomer and allowing the polymer equilibrium to readjust (i.e., via k− 4 and k5), or whether S100A4 also binds to the filament bundle and actively depolymerises an M200 unit (via k6 and k− 7). […] In an attempt to address this question, the dissociation rate of the M200 filament was followed on jumping the NaCl concentration from 100 mM to 120 mM in the absence and in the presence of S100A4 (Fig. 9c). Under these conditions in the absence of S100A4, turbidity dropped to about 50% of its initial value with a profile fitted to a double exponential (k1obs = 0.33 s^− 1 with 12% amplitude and k2obs = 0.037 s^− 1 with 43% amplitude, relative to the total amplitude expected for a full dissociation). Therefore, at the end point of this reaction, the filament concentration decreased by about 2-fold (turbidity is proportional to concentration over this range; Fig. S5b). There should also be a corresponding rise in M200 monomer concentration, but this may be less than accounted for by the loss of filaments if the drop in turbidity was also associated with a rise in small M200 oligomers with a lower specific turbidity. […]

S100A4: recombinant S100A4 expressed in E. coli BL21(DE3)
decrease in turbidity on NaCl jump (20 μM S100A4, 5 μM M200, 100 to 120 mM NaCl): 87% | initial rate relative to absence of S100A4 (20 μM S100A4, NaCl jump): five times faster than in the absence of S100A4 | kobs, biphasic fit (20 μM S100A4, NaCl jump): 0.21 s^− 1 | rate constant (single exponential) (20 μM S100A4, NaCl jump): 0.19 s^− 1
